Values of other authors as cited in paper PMC3433420.
Read-outs that look alike come from different tables or passages of the source.

Legend:
Settings in all cases: cited from earlier work
[1] = target: SOCS5 (Homo sapiens) (UniProt O75159)
[2] = target: SLA (Homo sapiens) (UniProt Q13239)
[3] = target: PLCG2-NC (Homo sapiens) (UniProt P16885)
[4] = target: GRB7 (Homo sapiens) (UniProt Q14451)
[5] = target: PIK3R3-NC (Homo sapiens) (UniProt Q92569)
[6] = target: RASA1-NC (Homo sapiens) (UniProt P20936)
RASA1-NC (Homo sapiens), sequence (P20936 176-446): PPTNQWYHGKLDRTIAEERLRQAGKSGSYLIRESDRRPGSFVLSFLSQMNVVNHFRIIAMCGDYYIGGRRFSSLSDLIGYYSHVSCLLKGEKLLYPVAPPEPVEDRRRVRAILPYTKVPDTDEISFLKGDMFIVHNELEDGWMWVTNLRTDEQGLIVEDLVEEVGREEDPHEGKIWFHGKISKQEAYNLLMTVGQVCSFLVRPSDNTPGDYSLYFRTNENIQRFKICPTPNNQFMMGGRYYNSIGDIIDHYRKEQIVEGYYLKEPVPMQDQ

[7] = target: ABL2 (Homo sapiens) (UniProt P42684)
ABL2 (Homo sapiens), sequence (P42684 168-268): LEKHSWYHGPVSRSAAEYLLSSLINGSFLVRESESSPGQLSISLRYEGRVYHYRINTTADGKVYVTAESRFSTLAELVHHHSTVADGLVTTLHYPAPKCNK

[8] = target: RASA1-N (Homo sapiens) (UniProt P20936)
RASA1-N (Homo sapiens), sequence (P20936 176-446): as the sequence (P20936 176-446) above

[9] = target: ABL2 (Homo sapiens) (UniProt P42684); remark: listed apart in the source
[10] = target: BLK (Homo sapiens) (UniProt P51451)
BLK (Homo sapiens), sequence (P51451 119-225): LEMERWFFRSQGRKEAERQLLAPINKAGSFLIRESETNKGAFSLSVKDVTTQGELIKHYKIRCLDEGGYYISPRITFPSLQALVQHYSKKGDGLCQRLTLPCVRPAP

[11] = target: YES1 (Homo sapiens) (UniProt P07947)
YES1 (Homo sapiens), sequence (P07947 153-260): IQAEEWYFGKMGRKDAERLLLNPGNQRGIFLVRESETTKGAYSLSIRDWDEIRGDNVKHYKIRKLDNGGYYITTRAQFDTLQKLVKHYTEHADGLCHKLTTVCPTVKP

[12] = target: SHB (Homo sapiens) (UniProt Q15464)
SHB (Homo sapiens), sequence (Q15464 405-509): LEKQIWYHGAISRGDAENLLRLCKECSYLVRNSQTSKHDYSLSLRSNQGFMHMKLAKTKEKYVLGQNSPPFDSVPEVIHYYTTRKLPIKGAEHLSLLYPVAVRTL

[13] = target: RASA1-N (Homo sapiens) (UniProt P20936); remark: listed apart in the source
[14] = target: ABL2 (Homo sapiens) (UniProt P42684); remark: listed apart in the source
[15] = target: RASA1-N (Homo sapiens) (UniProt P20936); remark: listed apart in the source
[16] = target: SYK-NC (Homo sapiens) (UniProt P43405)
[17] = target: RASA1-N (Homo sapiens) (UniProt P20936); remark: listed apart in the source
[18] = target: NCK2 (Homo sapiens) (UniProt O43639)
NCK2 (Homo sapiens), sequence (O43639 280-380): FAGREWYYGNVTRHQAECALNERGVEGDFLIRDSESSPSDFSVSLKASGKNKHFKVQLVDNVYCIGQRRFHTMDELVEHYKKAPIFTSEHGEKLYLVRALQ

[19] = target: VAV3 (Homo sapiens) (UniProt Q9UKW4)
VAV3 (Homo sapiens), sequence (Q9UKW4 667-771): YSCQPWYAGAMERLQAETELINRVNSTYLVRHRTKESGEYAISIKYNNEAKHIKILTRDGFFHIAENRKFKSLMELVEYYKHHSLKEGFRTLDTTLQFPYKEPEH

[20] = target: VAV2 (Homo sapiens) (UniProt P52735)
VAV2 (Homo sapiens), sequence (P52735 668-772): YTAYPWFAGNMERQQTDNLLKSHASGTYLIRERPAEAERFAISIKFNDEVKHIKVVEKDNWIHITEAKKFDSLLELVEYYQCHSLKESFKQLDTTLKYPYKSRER

[21] = target: PIK3R3-N (Homo sapiens) (UniProt Q92569)
[22] = target: VAV1 (Homo sapiens) (UniProt P15498)
VAV1 (Homo sapiens), sequence (P15498 666-770): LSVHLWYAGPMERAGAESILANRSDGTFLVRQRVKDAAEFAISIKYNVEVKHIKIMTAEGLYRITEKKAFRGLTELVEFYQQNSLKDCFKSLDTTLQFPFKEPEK

[23] = target: SHC1-PTB (Homo sapiens) (UniProt P29353)
SHC1-PTB (Homo sapiens), sequence (P29353 483-583): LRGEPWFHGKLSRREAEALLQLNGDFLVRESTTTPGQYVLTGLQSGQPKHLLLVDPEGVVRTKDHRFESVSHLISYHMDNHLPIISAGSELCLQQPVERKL

[24] = target: CRKL (Homo sapiens) (UniProt P46109)
CRKL (Homo sapiens), sequence (P46109 9-107): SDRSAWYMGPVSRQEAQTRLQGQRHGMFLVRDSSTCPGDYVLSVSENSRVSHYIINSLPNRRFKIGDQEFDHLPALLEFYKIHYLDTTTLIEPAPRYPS

[25] = target: VAV2 (Homo sapiens) (UniProt P52735); remark: listed apart in the source
[26] = target: PIK3R2-N (Homo sapiens) (UniProt O00459)
PIK3R2-N (Homo sapiens), sequence (O00459 325-721): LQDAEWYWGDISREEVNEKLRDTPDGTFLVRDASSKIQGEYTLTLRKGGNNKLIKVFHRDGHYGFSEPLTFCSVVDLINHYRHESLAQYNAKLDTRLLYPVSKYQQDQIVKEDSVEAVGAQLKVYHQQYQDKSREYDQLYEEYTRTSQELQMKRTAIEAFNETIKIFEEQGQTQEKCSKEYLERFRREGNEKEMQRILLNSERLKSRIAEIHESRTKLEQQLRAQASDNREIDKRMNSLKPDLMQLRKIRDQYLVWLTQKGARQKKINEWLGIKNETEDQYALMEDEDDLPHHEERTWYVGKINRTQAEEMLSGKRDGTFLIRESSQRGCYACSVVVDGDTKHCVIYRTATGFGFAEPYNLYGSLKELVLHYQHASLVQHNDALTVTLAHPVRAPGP

[27] = target: PIK3R3-NC (Homo sapiens) (UniProt Q92569); remark: listed apart in the source
[28] = target: RASA1-N (Homo sapiens) (UniProt P20936); remark: listed apart in the source
[29] = target: PLCG2-NC (Homo sapiens) (UniProt P16885); remark: listed apart in the source
[30] = target: GRB2 (Homo sapiens) (UniProt P62993)
GRB2 (Homo sapiens), sequence (P62993 55-157): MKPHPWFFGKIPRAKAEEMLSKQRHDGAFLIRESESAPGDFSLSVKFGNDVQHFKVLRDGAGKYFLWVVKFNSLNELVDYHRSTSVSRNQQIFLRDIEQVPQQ

[31] = target: SHC1-PTB (Homo sapiens) (UniProt P29353); remark: listed apart in the source
[32] = target: SYK-NC (Homo sapiens) (UniProt P43405); remark: listed apart in the source
[33] = target: ABL2 (Homo sapiens) (UniProt P42684); remark: listed apart in the source
[34] = target: YES1 (Homo sapiens) (UniProt P07947); remark: listed apart in the source
[35] = target: SYK-NC (Homo sapiens) (UniProt P43405); remark: listed apart in the source
[36] = target: PIK3R1-NC (Homo sapiens) (UniProt P27986)
PIK3R1-NC (Homo sapiens), sequence (P27986 328-723): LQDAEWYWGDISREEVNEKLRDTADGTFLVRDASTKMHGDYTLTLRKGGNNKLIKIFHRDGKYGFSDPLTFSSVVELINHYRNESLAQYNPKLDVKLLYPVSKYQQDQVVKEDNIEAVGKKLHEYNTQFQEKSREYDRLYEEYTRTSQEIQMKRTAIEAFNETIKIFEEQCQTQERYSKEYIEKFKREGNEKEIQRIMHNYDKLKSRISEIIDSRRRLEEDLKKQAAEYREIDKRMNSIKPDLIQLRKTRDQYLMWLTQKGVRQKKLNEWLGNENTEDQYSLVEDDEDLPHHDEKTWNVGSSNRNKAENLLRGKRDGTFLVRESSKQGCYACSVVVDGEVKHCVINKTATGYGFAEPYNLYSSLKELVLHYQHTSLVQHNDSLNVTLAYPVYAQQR

[37] = target: NCK2 (Homo sapiens) (UniProt O43639); remark: listed apart in the source
[38] = target: SYK-C (Homo sapiens) (UniProt P43405)
[39] = target: FGR (Homo sapiens) (UniProt P09769)
[40] = target: PIK3R3-NC (Homo sapiens) (UniProt Q92569); remark: listed apart in the source
[41] = target: ITK (Homo sapiens) (UniProt Q08881)
ITK (Homo sapiens), sequence (Q08881 234-343): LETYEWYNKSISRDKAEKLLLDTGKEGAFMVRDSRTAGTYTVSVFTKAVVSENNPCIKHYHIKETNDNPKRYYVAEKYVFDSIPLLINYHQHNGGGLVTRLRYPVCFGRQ

[42] = target: ABL2 (Homo sapiens) (UniProt P42684); remark: listed apart in the source
[43] = target: BLK (Homo sapiens) (UniProt P51451); remark: listed apart in the source
[44] = target: YES1 (Homo sapiens) (UniProt P07947); remark: listed apart in the source
[45] = target: PIK3R1-NC (Homo sapiens) (UniProt P27986); remark: listed apart in the source
[46] = target: FGR (Homo sapiens) (UniProt P09769); remark: listed apart in the source
[47] = target: PIK3R3-NC (Homo sapiens) (UniProt Q92569); remark: listed apart in the source
[48] = target: ZAP70-NC (Homo sapiens) (UniProt P43403)
ZAP70-NC (Homo sapiens), sequence (P43403 5-259): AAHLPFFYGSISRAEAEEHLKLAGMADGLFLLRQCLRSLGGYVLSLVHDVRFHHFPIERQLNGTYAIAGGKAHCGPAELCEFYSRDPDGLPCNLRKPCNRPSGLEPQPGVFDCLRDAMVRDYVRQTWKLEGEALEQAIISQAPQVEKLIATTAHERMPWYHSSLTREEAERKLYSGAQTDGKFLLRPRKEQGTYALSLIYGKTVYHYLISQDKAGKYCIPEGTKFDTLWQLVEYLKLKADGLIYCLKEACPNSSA

[49] = target: RASA1-N (Homo sapiens) (UniProt P20936); remark: listed apart in the source
[50] = target: ABL2 (Homo sapiens) (UniProt P42684); remark: listed apart in the source
[51] = target: PIK3R3-N (Homo sapiens) (UniProt Q92569); remark: listed apart in the source
[52] = target: PIK3R2-N (Homo sapiens) (UniProt O00459); remark: listed apart in the source

PLCG2-NC (Homo sapiens), sequence (P16885 527-740): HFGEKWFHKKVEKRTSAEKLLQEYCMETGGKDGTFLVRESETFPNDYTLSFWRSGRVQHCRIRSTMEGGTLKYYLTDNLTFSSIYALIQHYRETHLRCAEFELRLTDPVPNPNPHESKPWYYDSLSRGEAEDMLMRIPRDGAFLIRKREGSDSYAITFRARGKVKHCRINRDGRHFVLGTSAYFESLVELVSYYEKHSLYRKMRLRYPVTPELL
SOCS5 (Homo sapiens), sequence (O75159 376-481): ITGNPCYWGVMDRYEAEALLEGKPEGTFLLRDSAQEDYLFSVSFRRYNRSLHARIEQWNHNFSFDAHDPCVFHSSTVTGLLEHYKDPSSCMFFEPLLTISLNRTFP
SLA (Homo sapiens), sequence (Q13239 79-180): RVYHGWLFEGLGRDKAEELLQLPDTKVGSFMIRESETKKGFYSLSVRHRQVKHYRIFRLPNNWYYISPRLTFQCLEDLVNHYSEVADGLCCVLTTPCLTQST
GRB7 (Homo sapiens), sequence (Q14451 426-532): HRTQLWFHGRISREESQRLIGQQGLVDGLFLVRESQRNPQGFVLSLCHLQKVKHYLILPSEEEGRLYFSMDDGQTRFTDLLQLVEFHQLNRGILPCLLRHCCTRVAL

…pYMNRQRDG
apparent Kd (screen) [1]: 2000 nM
apparent Kd (screen) [2]: 2000 nM
apparent Kd (screen) [3]: 2000 nM
apparent Kd (screen) [4]: 2000 nM
apparent Kd (screen) [5]: 2000 nM
apparent Kd (screen) [6]: 2000 nM
apparent Kd (screen) [7]: 1960 nM
apparent Kd (screen) [8]: 1210 nM

…pYDGIPASEd
apparent Kd (screen) [9]: 137 nM
apparent Kd (screen) [10]: 1180 nM
apparent Kd (screen) [11]: 328 nM
apparent Kd (screen) [12]: 1060 nM
apparent Kd (screen) [13]: 1470 nM
apparent Kd (screen) [14]: 177 nM
apparent Kd (screen) [15]: 1410 nM
apparent Kd (screen) [16]: 1550 nM

…pYLTPQGGA
apparent Kd (screen) [17]: 638 nM
apparent Kd (screen) [18]: 759 nM
apparent Kd (screen) [19]: 596 nM
apparent Kd (screen) [20]: 372 nM
apparent Kd (screen) [21]: 1380 nM
apparent Kd (screen) [22]: 1240 nM
apparent Kd (screen) [23]: 153 nM
apparent Kd (screen) [24]: 1440 nM
apparent Kd (screen) [25]: 226 nM
apparent Kd (screen) [26]: 1280 nM
apparent Kd (screen) [27]: 950 nM
apparent Kd (screen) [28]: 671 nM
apparent Kd (screen) [29]: 1350 nM
apparent Kd (screen) [30]: 1330 nM
apparent Kd (screen) [31]: 346 nM
apparent Kd (screen) [32]: 1330 nM
apparent Kd (screen) [33]: 476 nM
apparent Kd (screen) [34]: 1190 nM
apparent Kd (screen) [35]: 1150 nM
apparent Kd (screen) [36]: 226 nM
apparent Kd (screen) [37]: 1100 nM
apparent Kd (screen) [38]: 1240 nM
apparent Kd (screen) [39]: 1680 nM
apparent Kd (screen) [40]: 1340 nM
apparent Kd (screen) [41]: 767 nM
apparent Kd (screen) [42]: 368 nM

…pYMNRRRRH
apparent Kd (screen) [43]: 1810 nM
apparent Kd (screen) [44]: 585 nM
apparent Kd (screen) [45]: 1510 nM
apparent Kd (screen) [46]: 1130 nM
apparent Kd (screen) [47]: 1460 nM
apparent Kd (screen) [48]: 1470 nM
apparent Kd (screen) [49]: 306 nM
apparent Kd (screen) [50]: 296 nM
apparent Kd (screen) [51]: 1380 nM
apparent Kd (screen) [52]: 1350 nM
